Experimental data from patent publication US20020009436A1, “Methods and compositions for inhibiting adhesion by microorganisms” (priority 1999, published 2002).

Test system: Salmonella enteritidis
Test: Hemagglutination of horse red blood cells by Salmonella enteritidis
Assay type: cell-based
Design: key: + Hemagglutination; − No hemagglutination
Details: 2 hr incubation, polyphenol oxidase 70 U/ml, asparaginase 65 U/ml
Experimental: Three Salmonella enteritidis clinical isolate strains, SE 79, SE 89-8312 and SE S1-072-Z were used. The bacterial strains were grown statically in brain heart infusion (BHI) broth for 48 h at 37° C. The cells were harvested by centrifugation and washed twice in 10 mM phosphate buffer (PB) pH 7.5. The final bacterial pellet was then suspended in the same buffer to the desired density.
Bacterial suspensions OD 1.0 (5 ml each) were mixed in the absence and presence of polyphenol oxidase (70 U/ml) or asparaginase (65 U/ml) and incubated statically at 37° C. for 2 h. The cells were then centrifuged and washed 2 times with PB (pH 7.5) and were suspended at a final volume 125 μl. These cells were subjected to hemagglutination tests.
For hemagglutination studies, red blood cells from horse were used. The red blood cells were washed with PBS (pH 7.5) by low speed centrifugation 10 min and suspended to 2% in the same buffer.

B1: asparaginase: enzyme that catalyzes hydrolysis of the side chain amide group of asparagine to a carboxyl group; E. coli asparaginase (protein, UniProt P00805 23-348, looked up)
L-asparaginase 2: LPNITILATGGTIAGGGDSATKSNYTVGKVGVENLVNAVPQLKDIANVKGEQVVNIGSQDMNDNVWLTLAKKINTDCDKTDGFVITHGTDTMEETAYFLDLTVKCDKPVVMVGAMRPSTSMSADGPFNLYNAVVTAADKASANRGVLVVMNDTVLDGRDVTKTNTTDVATFKSVNYGPLGYIHNGKIDYQRTPARKHTSDTPFDVSKLNELPKVGIVYNYANASDLPAKALVDAGYDGIVSAGVGNGNLYKSVFDTLATAAKTGTAVVRSSRVPTGATTQDAEVDDAKYGFVASGTLNPQKARVLLQLALTQTKDPQQIQQIFNQY
Hemagglutination (SE 79, dilution 1/1): +
Hemagglutination (SE 79, dilution 1/2): −
Hemagglutination (SE 79, dilution 1/4): −
Hemagglutination (SE 79, dilution 1/8): −
Hemagglutination (SE 79, dilution 1/16): −
Hemagglutination (SE 79, dilution 1/32): −
Hemagglutination (SE 79, dilution 1/64): −
Hemagglutination (SE 79, dilution 1/128): −
Hemagglutination (SE 89-8312, dilution 1/1): −
Hemagglutination (SE 89-8312, dilution 1/2): −
Hemagglutination (SE 89-8312, dilution 1/4): −
Hemagglutination (SE 89-8312, dilution 1/8): −
Hemagglutination (SE 89-8312, dilution 1/16): −
Hemagglutination (SE 89-8312, dilution 1/32): −
Hemagglutination (SE 89-8312, dilution 1/64): −
Hemagglutination (SE 89-8312, dilution 1/128): −
Hemagglutination (SES1-0072-Z, dilution 1/1): +
Hemagglutination (SES1-0072-Z, dilution 1/2): −
Hemagglutination (SES1-0072-Z, dilution 1/4): −
Hemagglutination (SES1-0072-Z, dilution 1/8): −
Hemagglutination (SES1-0072-Z, dilution 1/16): −
Hemagglutination (SES1-0072-Z, dilution 1/32): −
Hemagglutination (SES1-0072-Z, dilution 1/64): −
Hemagglutination (SES1-0072-Z, dilution 1/128): −
